Data published in patent US20160237132A1 (ALKERMES, published 2016).

Molecular target: IL-6 (UniProt P05231 30-212, limits assumed)
Test: cell-based or functional assay

Sequence of IL-6 (P05231 30-212 limits assumed): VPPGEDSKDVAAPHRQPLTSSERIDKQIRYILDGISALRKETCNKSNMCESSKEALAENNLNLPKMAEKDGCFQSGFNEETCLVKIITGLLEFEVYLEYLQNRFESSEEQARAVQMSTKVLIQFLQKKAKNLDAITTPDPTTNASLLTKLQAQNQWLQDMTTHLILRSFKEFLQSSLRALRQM

Binder | IC50, inhibition of IL-6-dependent differentiation of M1 cells (percent CD32 positive cells) | fold potency against RDB1542, inhibition of IL-6-dependent differentiation of M1 cells
RDB1542 (Fc fusion) QNQWLQDMTTHLILRSFKEFLQSSLRALRQMSGGSGGGSSERIDKQIRYILDGISALRKETCNKSNMCESSKEALAENNLNLPKMAEKDGCFQSGFNEETCLVKIITGLLEFEVYLEYLQNRFESSEEQARAVQMSTKVLIQFLQKKAKNLDAITTPDPTTNASLLTKLQASELLDPCGYISPESPVVQLHSNFTAVCVLKEKCMDYFHVNANYIVWKTNHFTIPKEQYTIINRTASSVTFTDIASLNIQLTCNILTFGQLEQNVYGITIISGGSERKCCVECPPCPAPPVAGPSVFLFPPKPKDTLMISRTPEVTCVVVDVSHEDPEVQFNWYVDGVEVHNAKTKPREEQFNSTFRVVSVLTVVHQDWLNGKEYKCKVSNKGLPAPIEKTISKTKGQPREPQVYTLPPSREEMTKNQVSLTCLVKGFYPSDISVEWESNGQPENNYKTTPPMLDSDGSFFLYSKLTVDKSRWQQGNVFSCSVMHEALHNHYTQKSLSLSPGK | > 1000 µM | –
RDB1562 (Fc fusion) QNQWLQDMTTHLILRSFKEFLQSSLRALRQMSGGSGGGSSERIDKQIRYILDGISALRKETCNKSNMCESSKEALAENNLNLPKMAEKDGCFQSGFNEETCLVKIITGLLEFEVYLEYLQNRFESSEEQARAVQMSTKVLIQFLQKKAKNLDAITTPDPTTNASLLTKLQASELLDPCGYISPESPVVQLHSNFTAVCVLKEKCMDYFHVNANYIVWKTNHFTIPKEQYTIINRTASSVTFTDIASLNIQLTCNILTFGQLEQNVYGITIISGGGGGSASSESSASSDGPHPVITESRASSESSASSDGPHPVITESRSERKCCVECPPCPAPPVAGPSVFLFPPKPKDTLMISRTPEVTCVVVDVSHEDPEVQFNWYVDGVEVHNAKTKPREEQFNSTFRVVSVLTVVHQDWLNGKEYKCKVSNKGLPAPIEKTISKTKGQPREPQVYTLPPSREEMTKNQVSLTCLVKGFYPSDISVEWESNGQPENNYKTTPPMLDSDGSFFLYSKLTVDKSRWQQGNVFSCSVMHEALHNHYTQKSLSLSPGK | 0.0026 µM | > 400 fold
